The test system of one data set is AncSZ. As to the kind of experiment: phosphorylation enrichment, bacterial display (enrichment ratio); higher = better substrate or ligand; peptides without Tyr show the background.
The target in a further data set is EPHB1 (UniProt P54762). The description is as above.
A further data set concerns the target EPHB2 (UniProt P29323). Described as above.
The next data set has as its target FGFR1 (UniProt P11362). The data set is described as above.
For a further data set, the target named is FGFR3 (UniProt P22607). The data set is described as above.
A further data set relates to Fer (mouse). The description is as above.
The next data set addresses Fes (UniProt P07332). Described as above.
A further data set concerns the target Fyn (UniProt P06241). The data set is described as above.
A further data set has as its target Hck (UniProt P08631). Described as above.
The target of another data set is Jak2 (UniProt O60674). The data set is described as above.
For a further data set, the target named is MERTK (UniProt Q12866). Described as above.
A further data set deals with c-Abl (mouse). The description is as above.
For a further data set, the system named is c-Src. The data set is described as above.
The target in another data set is Grb2 SH2 (UniProt P62993). As to the kind of experiment: SH2 binding enrichment of the phosphorylated peptide, bacterial display (enrichment ratio); higher = better substrate or ligand; peptides without Tyr show the background.
The next data set concerns the target SHP2-C SH2. The data set is described as above.
Another data set has as its target c-Src SH2. The description is as above.
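Wherever SH2 binding enrichment of the phosphorylated peptide, bacterial display is given: peptide library displayed on the E. coli surface as eCPX fusions, selected cells deep-sequenced, score is each peptide's frequency after selection divided by its frequency in the input.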
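Wherever phosphorylation enrichment, bacterial display is given: 11-residue human phosphosite peptides and single-mutation variants displayed on the E. coli surface, counted by deep sequencing, each peptide's frequency after selection divided by its frequency in the unselected input library; frequency after pTyr selection over input frequency; kinase dosed for 20-30% of maximal phosphorylation in three min.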

Chain of Jak2 (O60674 whole entry, looked up): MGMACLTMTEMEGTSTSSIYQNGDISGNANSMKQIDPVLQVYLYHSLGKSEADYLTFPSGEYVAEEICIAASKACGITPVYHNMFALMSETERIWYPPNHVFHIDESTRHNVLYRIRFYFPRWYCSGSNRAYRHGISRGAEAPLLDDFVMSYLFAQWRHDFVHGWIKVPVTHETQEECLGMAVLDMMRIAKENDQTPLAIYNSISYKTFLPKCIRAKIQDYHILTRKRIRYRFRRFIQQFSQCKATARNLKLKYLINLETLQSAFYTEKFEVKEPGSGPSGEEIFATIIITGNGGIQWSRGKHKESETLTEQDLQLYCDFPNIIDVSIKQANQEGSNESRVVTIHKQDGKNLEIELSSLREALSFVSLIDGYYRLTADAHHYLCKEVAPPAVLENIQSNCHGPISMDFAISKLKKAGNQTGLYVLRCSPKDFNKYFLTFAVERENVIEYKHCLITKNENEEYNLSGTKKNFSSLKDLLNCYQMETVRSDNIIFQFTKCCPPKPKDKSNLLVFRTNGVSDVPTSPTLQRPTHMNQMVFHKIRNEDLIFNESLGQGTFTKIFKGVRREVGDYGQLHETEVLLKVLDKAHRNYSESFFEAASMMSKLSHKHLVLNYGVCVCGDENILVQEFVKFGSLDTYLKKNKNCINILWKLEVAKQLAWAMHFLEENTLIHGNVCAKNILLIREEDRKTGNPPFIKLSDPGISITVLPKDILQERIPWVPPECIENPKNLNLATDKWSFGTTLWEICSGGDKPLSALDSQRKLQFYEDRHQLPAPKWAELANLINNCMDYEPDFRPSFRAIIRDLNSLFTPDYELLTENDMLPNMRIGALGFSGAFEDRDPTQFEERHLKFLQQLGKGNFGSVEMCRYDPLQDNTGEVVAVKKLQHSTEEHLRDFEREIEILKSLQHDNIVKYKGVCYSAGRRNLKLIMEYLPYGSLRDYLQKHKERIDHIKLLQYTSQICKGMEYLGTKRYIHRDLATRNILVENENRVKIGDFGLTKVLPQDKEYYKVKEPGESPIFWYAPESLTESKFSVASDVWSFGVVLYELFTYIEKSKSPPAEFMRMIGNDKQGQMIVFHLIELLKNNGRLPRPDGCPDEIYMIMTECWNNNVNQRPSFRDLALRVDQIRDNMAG
Chain of FGFR3 (P22607 whole entry, looked up): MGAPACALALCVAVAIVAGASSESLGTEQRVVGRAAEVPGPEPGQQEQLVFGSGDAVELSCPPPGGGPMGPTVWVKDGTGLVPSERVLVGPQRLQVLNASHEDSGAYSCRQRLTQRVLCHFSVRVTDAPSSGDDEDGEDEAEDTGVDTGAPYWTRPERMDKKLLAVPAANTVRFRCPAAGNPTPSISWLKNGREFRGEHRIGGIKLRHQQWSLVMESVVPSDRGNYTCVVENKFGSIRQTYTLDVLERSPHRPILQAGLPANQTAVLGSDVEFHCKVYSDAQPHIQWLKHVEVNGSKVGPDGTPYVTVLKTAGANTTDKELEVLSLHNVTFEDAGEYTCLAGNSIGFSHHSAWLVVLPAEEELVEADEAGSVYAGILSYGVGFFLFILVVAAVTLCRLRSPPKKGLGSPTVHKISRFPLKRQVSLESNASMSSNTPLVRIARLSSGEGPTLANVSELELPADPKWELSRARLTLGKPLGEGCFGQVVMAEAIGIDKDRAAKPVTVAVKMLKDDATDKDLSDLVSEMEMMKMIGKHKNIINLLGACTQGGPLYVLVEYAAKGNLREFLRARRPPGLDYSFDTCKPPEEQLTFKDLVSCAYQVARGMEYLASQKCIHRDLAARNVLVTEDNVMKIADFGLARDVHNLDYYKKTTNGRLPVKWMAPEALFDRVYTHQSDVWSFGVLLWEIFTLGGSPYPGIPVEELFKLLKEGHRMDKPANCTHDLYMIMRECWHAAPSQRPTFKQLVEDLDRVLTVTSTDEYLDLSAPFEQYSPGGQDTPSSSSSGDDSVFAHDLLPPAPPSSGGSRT
Chain of FGFR1 (P11362 whole entry, looked up): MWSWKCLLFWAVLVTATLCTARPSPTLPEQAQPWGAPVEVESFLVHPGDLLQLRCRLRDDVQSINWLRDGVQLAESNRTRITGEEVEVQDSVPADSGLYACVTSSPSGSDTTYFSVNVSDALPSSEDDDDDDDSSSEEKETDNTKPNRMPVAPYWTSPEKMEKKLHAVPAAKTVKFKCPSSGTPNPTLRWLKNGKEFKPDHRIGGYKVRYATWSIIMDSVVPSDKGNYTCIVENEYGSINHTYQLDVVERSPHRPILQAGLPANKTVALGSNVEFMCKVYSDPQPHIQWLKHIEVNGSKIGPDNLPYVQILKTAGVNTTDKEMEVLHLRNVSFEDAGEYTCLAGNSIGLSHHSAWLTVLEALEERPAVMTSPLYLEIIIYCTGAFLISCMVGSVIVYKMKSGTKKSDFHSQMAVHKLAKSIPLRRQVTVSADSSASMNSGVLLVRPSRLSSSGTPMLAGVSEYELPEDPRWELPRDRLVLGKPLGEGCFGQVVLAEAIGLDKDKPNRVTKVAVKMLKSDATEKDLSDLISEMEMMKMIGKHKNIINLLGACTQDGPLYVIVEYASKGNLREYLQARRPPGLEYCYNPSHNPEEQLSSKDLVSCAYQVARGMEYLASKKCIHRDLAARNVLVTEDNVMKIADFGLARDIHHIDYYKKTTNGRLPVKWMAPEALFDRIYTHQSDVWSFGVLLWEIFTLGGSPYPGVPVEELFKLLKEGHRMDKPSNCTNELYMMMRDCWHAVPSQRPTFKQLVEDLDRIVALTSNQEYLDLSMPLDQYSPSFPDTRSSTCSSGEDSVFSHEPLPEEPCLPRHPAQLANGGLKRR
Chain of EPHB1 (P54762 whole entry, looked up): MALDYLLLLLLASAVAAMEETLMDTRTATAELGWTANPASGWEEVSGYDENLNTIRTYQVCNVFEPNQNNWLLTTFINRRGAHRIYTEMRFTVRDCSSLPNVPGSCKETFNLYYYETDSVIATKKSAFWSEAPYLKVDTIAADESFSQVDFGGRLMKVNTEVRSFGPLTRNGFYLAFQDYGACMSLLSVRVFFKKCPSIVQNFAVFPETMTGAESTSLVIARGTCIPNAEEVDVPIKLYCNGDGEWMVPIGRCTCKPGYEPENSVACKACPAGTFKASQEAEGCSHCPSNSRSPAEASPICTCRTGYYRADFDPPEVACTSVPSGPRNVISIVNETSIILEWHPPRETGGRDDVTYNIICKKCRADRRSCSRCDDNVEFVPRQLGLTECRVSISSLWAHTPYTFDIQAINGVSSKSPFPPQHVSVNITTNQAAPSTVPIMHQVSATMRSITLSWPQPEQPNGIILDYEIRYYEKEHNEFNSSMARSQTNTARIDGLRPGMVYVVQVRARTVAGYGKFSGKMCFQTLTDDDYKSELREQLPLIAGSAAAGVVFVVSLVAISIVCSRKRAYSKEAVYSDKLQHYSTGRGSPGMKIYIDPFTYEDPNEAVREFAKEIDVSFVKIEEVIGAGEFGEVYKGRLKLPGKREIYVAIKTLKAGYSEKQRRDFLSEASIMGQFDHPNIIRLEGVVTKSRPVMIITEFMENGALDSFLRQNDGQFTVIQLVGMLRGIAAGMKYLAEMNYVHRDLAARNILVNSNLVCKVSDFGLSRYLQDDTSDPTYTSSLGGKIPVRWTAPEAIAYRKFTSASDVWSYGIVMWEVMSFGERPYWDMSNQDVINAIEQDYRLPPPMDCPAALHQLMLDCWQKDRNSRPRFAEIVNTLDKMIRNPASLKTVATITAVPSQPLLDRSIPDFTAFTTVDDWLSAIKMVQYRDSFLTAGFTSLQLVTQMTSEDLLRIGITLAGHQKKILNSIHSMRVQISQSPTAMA
Chain of Hck (P08631 whole entry, looked up): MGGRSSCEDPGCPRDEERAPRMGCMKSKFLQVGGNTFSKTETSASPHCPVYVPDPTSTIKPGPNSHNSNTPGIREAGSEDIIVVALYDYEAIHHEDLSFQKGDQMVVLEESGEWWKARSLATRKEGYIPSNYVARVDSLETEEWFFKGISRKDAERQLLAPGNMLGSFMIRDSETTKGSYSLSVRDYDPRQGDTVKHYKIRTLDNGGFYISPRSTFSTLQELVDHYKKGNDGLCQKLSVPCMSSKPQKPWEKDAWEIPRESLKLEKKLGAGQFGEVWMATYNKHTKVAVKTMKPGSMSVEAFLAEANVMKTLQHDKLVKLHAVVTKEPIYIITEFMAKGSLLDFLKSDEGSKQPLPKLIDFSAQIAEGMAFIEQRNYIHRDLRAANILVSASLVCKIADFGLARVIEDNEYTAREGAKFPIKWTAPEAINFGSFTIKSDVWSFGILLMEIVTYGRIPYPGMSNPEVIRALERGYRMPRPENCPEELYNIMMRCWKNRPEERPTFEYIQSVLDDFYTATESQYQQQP
Chain of Fyn (P06241 whole entry, looked up): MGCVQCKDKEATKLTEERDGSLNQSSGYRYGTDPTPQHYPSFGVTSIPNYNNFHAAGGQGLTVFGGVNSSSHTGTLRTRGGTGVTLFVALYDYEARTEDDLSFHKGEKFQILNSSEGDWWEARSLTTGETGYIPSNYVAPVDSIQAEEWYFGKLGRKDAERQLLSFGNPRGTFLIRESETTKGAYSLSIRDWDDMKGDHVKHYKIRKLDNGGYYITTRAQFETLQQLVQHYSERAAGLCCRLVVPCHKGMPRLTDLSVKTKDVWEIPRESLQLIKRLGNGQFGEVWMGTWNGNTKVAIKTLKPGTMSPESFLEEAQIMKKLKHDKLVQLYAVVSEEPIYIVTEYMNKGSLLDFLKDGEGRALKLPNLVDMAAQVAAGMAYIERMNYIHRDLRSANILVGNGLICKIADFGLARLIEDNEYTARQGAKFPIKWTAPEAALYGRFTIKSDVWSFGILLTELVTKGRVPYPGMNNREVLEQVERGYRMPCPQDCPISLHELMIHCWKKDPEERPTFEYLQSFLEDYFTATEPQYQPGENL
Chain of Grb2 SH2 (P62993 whole entry, looked up): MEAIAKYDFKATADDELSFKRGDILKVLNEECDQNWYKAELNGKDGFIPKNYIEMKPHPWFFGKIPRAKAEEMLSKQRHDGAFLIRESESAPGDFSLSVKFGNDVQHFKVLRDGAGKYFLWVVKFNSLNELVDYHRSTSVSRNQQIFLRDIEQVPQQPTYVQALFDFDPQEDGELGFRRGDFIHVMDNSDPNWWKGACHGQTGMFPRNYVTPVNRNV

Turning to QFQEKYKQVEQ [HCN4_Y531_YF], the phosphorylation enrichment in the data set with AncSZ turned out to be 1.27; in the data set with EPHB1, 0.663; with EPHB2, 0.95; in the data set with FGFR1, 0.699; with FGFR3 it was 0.706; with Fer (mouse) it was 0.63. Besides, the phosphorylation enrichment in the data set with Fes amounted to 1.29; in the data set with Fyn, 0.564; with Hck, 0.882; with Jak2, 2.09; with MERTK, 0.559; in the data set with c-Abl (mouse), 0.913. Also, in the data set on c-Src, the phosphorylation enrichment was 0.679. The SH2 binding enrichment is 0.624 in the data set with Grb2 SH2, 0.876 in the data set with SHP2-C SH2 and 0.603 with c-Src SH2.

As for PIYEGYGLPHA [ACTA1_Y171_A172G], the phosphorylation enrichment was 1.32 with AncSZ; 31 with EPHB1; 33.5 with EPHB2; 0.555 with FGFR1; 0.945 in the data set with FGFR3; 20.9 in the data set on Fer (mouse). Also, the phosphorylation enrichment with Fes was found to be 2.45; with Fyn, 17.5; with Hck, 16.9; with Jak2, 0.833; with MERTK it was 18.3; with c-Abl (mouse), 12.7. The phosphorylation enrichment in the data set with c-Src stood at 13.8. The SH2 binding enrichment with Grb2 SH2 amounted to 0.79; with SHP2-C SH2 it was 0.52; with c-Src SH2, 0.739.

On to MGGSVYFSFPD [HIKESHI_Y55_YF], for which the phosphorylation enrichment in the data set on AncSZ is 1.55; in the data set with EPHB1 it was 1.09; in the data set with EPHB2, 0.991; with FGFR1 it was 3.19; with FGFR3, 2.85; in the data set on Fer (mouse) it was 0.55. Also, the phosphorylation enrichment with Fes was found to be 1.32; in the data set with Fyn, 4.01; with Hck, 2.64; in the data set with Jak2, 1.94; with MERTK, 3.89; in the data set on c-Abl (mouse), 1.12. Further, the phosphorylation enrichment in the data set on c-Src is 5.05. Further, the SH2 binding enrichment in the data set with Grb2 SH2 was 0.892; with SHP2-C SH2, 0.908; with c-Src SH2, 0.662.

As for SYCYRYRCAAW [SUMF1_Y344_R349W], the phosphorylation enrichment is 0.707 with AncSZ; 0.445 with EPHB1; 0.453 in the data set with EPHB2; 0.532 with FGFR1; 0.508 in the data set with FGFR3; 0.404 in the data set with Fer (mouse). Also, the phosphorylation enrichment with Fes worked out at 0.785; with Fyn, 0.395; with Hck, 0.386; with Jak2 it was 0.508; in the data set with MERTK it was 0.497; in the data set on c-Abl (mouse), 0.594. Moreover, in the data set on c-Src, the phosphorylation enrichment was 0.471. Moreover, the SH2 binding enrichment with Grb2 SH2 was 1.6; with SHP2-C SH2 it was 1.88; with c-Src SH2, 1.67.

With DIDKIYVRTGI [PIK3CA_Y355], the phosphorylation enrichment with AncSZ was determined as 0.975; with EPHB1, 0.697; with EPHB2, 0.593; in the data set with FGFR1, 0.518; in the data set with FGFR3, 0.772; in the data set on Fer (mouse), 0.525. In addition, the phosphorylation enrichment worked out at 0.934 in the data set with Fes; 0.458 with Fyn; 0.529 with Hck; 0.878 in the data set with Jak2; 0.33 with MERTK; 0.713 with c-Abl (mouse). Further, the phosphorylation enrichment with c-Src amounted to 0.528. The SH2 binding enrichment stood at 0.864 with Grb2 SH2, 0.757 in the data set with SHP2-C SH2 and 0.539 with c-Src SH2.

For CTTIHYDFMCN [TP53_Y234_N235D_YF], the phosphorylation enrichment is 1.16 with AncSZ; 0.681 in the data set with EPHB1; 0.514 in the data set with EPHB2; 0.544 in the data set with FGFR1; 0.764 with FGFR3; 1.05 with Fer (mouse). Besides, the phosphorylation enrichment was found to be 1.03 in the data set with Fes; 0.644 in the data set with Fyn; 0.656 with Hck; 0.873 in the data set with Jak2; 0.49 in the data set with MERTK; 0.704 in the data set on c-Abl (mouse). Further, the phosphorylation enrichment in the data set on c-Src amounted to 0.545. The SH2 binding enrichment worked out at 1.2 with Grb2 SH2, 2.73 with SHP2-C SH2 and 6.1 with c-Src SH2.

Regarding KYLENYLNRLL [PLD2_Y169], the phosphorylation enrichment with AncSZ was 0.832; with EPHB1, 0.523; with EPHB2, 0.483; in the data set with FGFR1, 0.459; with FGFR3, 0.577; in the data set on Fer (mouse), 0.609. Moreover, the phosphorylation enrichment with Fes was found to be 0.989; with Fyn, 0.45; with Hck it was 0.414; in the data set with Jak2 it was 0.859; with MERTK, 0.478; in the data set with c-Abl (mouse), 0.809. Also, the phosphorylation enrichment with c-Src was 0.475. Also, the figures for the SH2 binding enrichment with Grb2 SH2, with SHP2-C SH2 and in the data set with c-Src SH2 were 1.46, 1.44 and 1.27, respectively.

With CPYNLYAEQFS [HGD_Y40_L44F], the phosphorylation enrichment stood at 1.46 with AncSZ; 4.18 with EPHB1; 3.18 in the data set with EPHB2; 0.877 with FGFR1; 0.973 with FGFR3; 2.09 in the data set with Fer (mouse). Also, the phosphorylation enrichment was 1.16 in the data set with Fes; 3.86 with Fyn; 3 with Hck; 0.989 with Jak2; 3.9 with MERTK; 0.72 in the data set on c-Abl (mouse). Moreover, the phosphorylation enrichment with c-Src stood at 6.06. Further, the SH2 binding enrichment in the data set with Grb2 SH2 was found to be 0.855; in the data set with SHP2-C SH2 it was 0.645; with c-Src SH2, 0.706.

These data come from the supplement of paper PMC10065799, “High-throughput profiling of sequence recognition by tyrosine kinases and SH2 domains using bacterial peptide display” (eLife, 2023).
